Experimental data as given in FireProtDB (doi:10.1110/ps.8.7.1530).

Settings: Escherichia coli (strain K12); pH 7.4; 22 °C; GdnHCl; Fluorescence; Sodium phosphate 20 mM; reversible: yes; whole UniProt chain shown

B1: PTS system mannose-specific EIIAB component wild type, P69797 (protein)
chain: MTIAIVIGTHGWAAEQLLKTAEMLLGEQENVGWIDFVPGENAETLIEKYNAQLAKLDTTKGVLFLVDTWGGSPFNAASRIVVDKEHYEVIAGVNIPMLVETLMARDDDPSFDELVALAVETGREGVKALKAKPVEKAAPAPAAAAPKAAPTPAKPMGPNDYMVIGLARIDDRLIHGQVATRWTKETNVSRIIVVSDEVAADTVRKTLLTQVAPPGVTAHVVDVAKMIRVYNNPKYAGERVMLLFTNPTDVERLVEGGVKITSVNVGGMAFRQGKTQVNNAVSVDEKDIEAFKKLNARGIELEVRKVSTDPKLKMMDLISKIDK
- denaturant midpoint (higher = more stable): 2.3 M
- unfolding free energy: 10.5 kcal/mol
